Data reported in PMC10899635 (2024).

B1: Nb27 (VHH)
VHH: QVQLQESGGGLVQPGGSLRLSCTTSRSILSIYAMGWYRQAPGKQRELVAVITSGGSTYYADSVKGRFTISRDNAKNTLYLQMNSLKPEDTALYYCARGGYGTSPQPSWGQGTQVTVSS
B2: Nb39 (VHH)
VHH: QVQLQESGGGLVQPGGSLRLSCTASGSIFSGYAMGWYRQAPGKQRELVAGITSGGSTIYAGSVKGRFTISRDNAKNTVYLQMNSLKPEDTAVYYCKNGTYYSARDYWGQGTQVTVSS
B3: recombinant Q586B2 protein (natural protein)
chain: MPNLVVTATFSPPAFSIVGSPLREDTIKHMEERIPTVLSTALSRSREPSYFVHSKNPESWKMELSQHFCDELHRAAVSLVIIECLDAEGWVLRTSSSSQDTNEGKCCIKFYFTRS

What was measured:
[1] = biological target: B3

| Binder | Kd [1] [nM] | Kd (Nb36) [nM] | Kd (Nb34) [nM] |
| --- | --- | --- | --- |
| B1 | 52 | – | – |
| B2 | 49.9 | – | – |
| B3 | – | 11.3 | 36.7 |
